# Experimental data: patent US11278600B2, “Human alpha-galactosidase variants” (Codexis, Inc., priority 2014, dated 2022)
# Positions count from the first letter of the chain named.
# B1: 15 (protein)
# chain: LDNGLARTPTMGWLHWERFMCNLDCQEEPDSCISEKLFMEMAELMVSDGWKDAGYEYLCIDDCWMAPQRDSEGRLQADPQRFPHGIRQLANYVHSKGLKLGIYADVGNKTCAGFPGSFGYYDIDAQTFADWGVDLLKFDGCYCDSLENLADGYKHMSLALNRTGRSIVYSCEWPLYMWPFQKPNYTEIRQYCNHWRNFADIDDSWKSVKSILDWTSFNQERIVDVAGPGGWNDPDMLVIGNFGLSWNQQVTQMALWAIMAAPLFMSNDLRHISPQAKALLQDKDVIAINQDPLGKQGYRLRKGDNFEVWERPLSGLAWAVAMINRQEIGGPRSYTIAVASLGKGVACNPACFITQLLPVKRKLGFYEWTSRLKSHINPTGTVLLQLENTMQMSLKDLL
# modifications: Synthetic Polypeptide sequence of Variant No. 15 of mature Human GLA
# B2: 16 (protein)
# chain: LDNGLARTPTMGWLHWERFMCNLDCQEEPDSCISEKLFMEMAELMVSDGWKDAGYEYLCIDDCWMAPQRDSEGRLQADPQRFPHGIRQLANYVHSKGLKLGIYADVGNKTCAGFPGSFGYYDIDAQTFADWGVDLLKFDGCYCDSLENLADGYKHMSLALNRTGRSIVYSCEWPLYMWPFQKPNYTEIRQYCNHWRNFADIDDSWKSIKSILDWTSFNQERIVDVAGPGGWNDPDMLVIGNFGLSWNQQVTQMALWAIMAAPLFMSNDLRHISPQAKALLQDKDVIAINQDPLGKQGYQLRQGDNFEVWERPLSGLAWAVAMINRQEIGGPRSYTIAVASLGKGVACNPACFITQLLPVKRKLGFYEWTSRLKSHVNPTGTVLLQLENTMQMSLKDLLL
# modifications: Synthetic Polypeptide sequence of Variant No. 16 of mature Human GLA
# B3: 17 (protein)
# chain: B2 chain with D48G, V376I
# modifications: Synthetic Polypeptide sequence of Variant No. 17 of mature Human GLA
# B4: 18 (protein)
# chain: B2 chain with D48E, F217S, K373R, V376I
# modifications: Synthetic Polypeptide sequence of Variant No. 18 of mature Human GLA
# B5: 19 (protein)
# chain: B2 chain with D48E, I208V, N247D, Q299R, Q302K
# modifications: Synthetic Polypeptide sequence of Variant No. 19 of mature Human GLA
# B6: 20 (protein)
# chain: B2 chain with D48E, I208V, N247D, Q299R
# modifications: Synthetic Polypeptide sequence of Variant No. 20 of mature Human GLA
# B7: 21 (protein)
# chain: B2 chain with D48E, I208V, N247D
# modifications: Synthetic Polypeptide sequence of Variant No. 21 of mature Human GLA
# B8: 22 (protein)
# chain: B2 chain with D48E, I208V, Q299R, K373R
# modifications: Synthetic Polypeptide sequence of Variant No. 22 of mature Human GLA
# B9: 23 (protein)
# chain: B2 chain with D48E, I208V, Q302K
# modifications: Synthetic Polypeptide sequence of Variant No. 23 of mature Human GLA
# B10: 24 (protein)
# chain: B2 chain with D48E, K373R
# modifications: Synthetic Polypeptide sequence of Variant No. 24 of mature Human GLA
# B11: 25 (protein)
# chain: B2 chain with K36Q, D48E, K373R, V376I
# modifications: Synthetic Polypeptide sequence of Variant No. 25 of mature Human GLA
# Assay: HTP-analysis of yeast culture supernatants, no challenge (MUGal hydrolysis)
# Type: biochemical
# Conditions: activity of the variant/activity of WT GLA (SEQ ID NO: 5), yeast supernatant
# Description: (§1) Yeast (INVSc1) cells transformed with vectors expressing GLA and GLA variants using the lithium acetate method were selected on SD-Ura agar plates. After 72 h incubation at 30° C. colonies were placed into the wells of Axygen® 1.1 ml 96-well deep well plates filled with 200 μl/well SD-Ura broth (2 g/L SD-Ura, 6.8 g/L yeast nitrogen base without amino acids [Sigma Aldrich]), 3.06 g/L sodium dihydrogen phosphate, 0.804 g/L disodium hydrogen phosphate, pH 6.0 supplemented with 6% glucose. The cells were allowed to grow for 20-24 hours in a Kuhner shaker (250 rpm, 30° C., and 85% relative humidity). Overnight culture samples (20 μL) were transferred into Corning Costar® 96-well deep plates filled with 380 µL of SD-ura broth supplemented with 2% glucose. The plates were incubated for 66-84 h in a Kuhner shaker (250 rpm, 30° C., and 85% relative humidity). The cells were then pelleted (4000 rpm×20 min), and the supernatants isolated and stored at 4° C. prior to analysis.
# GLA variant activity was determined by measuring the hydrolysis of 4-methylumbelliferyl α-D-galactopyranoside (MUGal). For this assay, 5-50 μL, of yeast culture supernatant produced as described above, was mixed with 0-45 μL, of McIlvaine Buffer (McIlvaine, J. Biol. Chem., 49:183-186 [1921]), pH 4.8 and 50 μL of 2 mM MUGal in 50 mM citrate, 200 mM KCl, pH 4.6 in a 96-well, black, opaque bottom plate. The reactions were mixed briefly and incubated at 37° C. for 30-180 minutes, prior to quenching with 100 μL, of 1 M sodium carbonate. Hydrolysis was analyzed using a SpectraMax® M2 microplate reader monitoring fluorescence (Ex. 355 nm, Em. 448 nm).
row,Molecule,Relative Activity of GLA Variants After No Challenge (NC)
1,B1,+ (+ = 0.5 to 1.5 relative activity over WT GLA (SEQ ID NO: 5))
2,B2,+ (+ = 0.5 to 1.5 relative activity over WT GLA (SEQ ID NO: 5))
3,B3,+ (+ = 0.5 to 1.5 relative activity over WT GLA (SEQ ID NO: 5))
4,B4,+ (+ = 0.5 to 1.5 relative activity over WT GLA (SEQ ID NO: 5))
5,B5,+ (+ = 0.5 to 1.5 relative activity over WT GLA (SEQ ID NO: 5))
6,B6,+ (+ = 0.5 to 1.5 relative activity over WT GLA (SEQ ID NO: 5))
7,B7,+ (+ = 0.5 to 1.5 relative activity over WT GLA (SEQ ID NO: 5))
8,B8,+ (+ = 0.5 to 1.5 relative activity over WT GLA (SEQ ID NO: 5))
9,B9,+ (+ = 0.5 to 1.5 relative activity over WT GLA (SEQ ID NO: 5))
10,B10,+ (+ = 0.5 to 1.5 relative activity over WT GLA (SEQ ID NO: 5))
11,B11,+ (+ = 0.5 to 1.5 relative activity over WT GLA (SEQ ID NO: 5))

# Assay: HTP-analysis of supernatants pretreated with base (MUGal hydrolysis)
# Type: biochemical
# Conditions: challenge at pH 7.0; activity of the variant/activity of WT GLA (SEQ ID NO: 5); yeast supernatant
# Description: as §1
# GLA variants were challenged with basic (neutral) buffer to simulate the pHs that the variants encounter in the blood following their administration to a patient. First, 50 μL of yeast culture supernatant and 50 uL of McIlvaine buffer (pH 7.0-8.2) or 200 mM sodium bicarbonate (pH 9.1-9.7) were added to the wells of a 96-well round bottom plate. The plates were sealed and incubated at 37° C. for 1-18 h. For the assay, 10-50 μL of basic-pH-challenged sample was mixed with 0-40 μL, of McIlvaine buffer pH 4.8, 25 μL, of 1 M citrate buffer pH 4.3 and 25 μL, of 4 mM MUGal in McIlvaine buffer pH 4.8. The reactions were mixed briefly and incubated at 37° C. for 30-180 minutes, prior to quenching with 100 μL, of 1 M sodium carbonate. Hydrolysis was analyzed using a SpectraMax® M2 microplate reader monitoring fluorescence (Ex. 355 nm, Em. 448 nm).
row,Molecule,Relative Activity of GLA Variants After Challenge at pH 7.0
1,B1,+ (+ = 0.5 to 1.5 relative activity over WT GLA (SEQ ID NO: 5))
2,B2,+ (+ = 0.5 to 1.5 relative activity over WT GLA (SEQ ID NO: 5))
3,B3,+ (+ = 0.5 to 1.5 relative activity over WT GLA (SEQ ID NO: 5))
4,B4,++ (++ = >1.5 to 2.5 relative activity over WT GLA (SEQ ID NO: 5))
5,B5,+ (+ = 0.5 to 1.5 relative activity over WT GLA (SEQ ID NO: 5))
6,B6,++ (++ = >1.5 to 2.5 relative activity over WT GLA (SEQ ID NO: 5))
7,B7,++ (++ = >1.5 to 2.5 relative activity over WT GLA (SEQ ID NO: 5))
8,B8,+ (+ = 0.5 to 1.5 relative activity over WT GLA (SEQ ID NO: 5))
9,B9,++ (++ = >1.5 to 2.5 relative activity over WT GLA (SEQ ID NO: 5))
10,B10,+ (+ = 0.5 to 1.5 relative activity over WT GLA (SEQ ID NO: 5))
11,B11,+ (+ = 0.5 to 1.5 relative activity over WT GLA (SEQ ID NO: 5))

# Assay: HTP-analysis of supernatants pretreated with acid (MUGal hydrolysis)
# Type: biochemical
# Conditions: challenge at pH 4.3; activity of the variant/activity of WT GLA (SEQ ID NO: 5); yeast supernatant
# Description: as §1
# GLA variants were challenged with acidic buffer to simulate the extreme pHs that the variants may encounter in lysosomes. First, 50 μL of yeast culture supernatant and 50 uL of McIlvaine buffer (pH 3.3-4.3) were added to the wells of a 96-well round bottom plate. The plates were sealed with a PlateLoc Thermal Microplate Sealer (Agilent) and incubated at 37° C. for 1-3 h. For the assay, 10-50 uL of acid-pH-challenged sample was mixed with 0-40 μL, of McIlvaine buffer pH 4.8, 25 μL, of 1 M citrate buffer pH 4.3 and 25 μL, of 4 mM MUGal in McIlvaine buffer pH 4.8. The reactions were mixed briefly and incubated at 37° C. for 30-180 minutes, prior to quenching with 100 μL, of 1 M sodium carbonate. Hydrolysis was analyzed using a SpectraMax® M2 microplate reader monitoring fluorescence (Ex. 355 nm, Em. 448 nm).
row,Molecule,Relative Activity of GLA Variants After Challenge at pH 4.3
1,B1,+ (+ = 0.5 to 1.5 relative activity over WT GLA (SEQ ID NO: 5))
2,B2,++ (++ = >1.5 to 2.5 relative activity over WT GLA (SEQ ID NO: 5))
3,B3,+ (+ = 0.5 to 1.5 relative activity over WT GLA (SEQ ID NO: 5))
4,B4,+ (+ = 0.5 to 1.5 relative activity over WT GLA (SEQ ID NO: 5))
5,B5,++ (++ = >1.5 to 2.5 relative activity over WT GLA (SEQ ID NO: 5))
6,B6,+++ (+++ = >2.5 relative activity over WT GLA (SEQ ID NO: 5))
7,B7,+++ (+++ = >2.5 relative activity over WT GLA (SEQ ID NO: 5))
8,B8,+ (+ = 0.5 to 1.5 relative activity over WT GLA (SEQ ID NO: 5))
9,B9,+++ (+++ = >2.5 relative activity over WT GLA (SEQ ID NO: 5))
10,B10,++ (++ = >1.5 to 2.5 relative activity over WT GLA (SEQ ID NO: 5))
11,B11,+ (+ = 0.5 to 1.5 relative activity over WT GLA (SEQ ID NO: 5))
